Test results as given in paper PMC2323369.
pKd: −log10 of the molar value.

Legend:
Assay in all cases: not stated; Table 1, GST-RBD, GDP-RhoA, GTP-Cdc42, GTP-Rac1; the caption names competition ELISA and SPR but not which gave these limits
[1] = molecular target: GST-Cdc42 (UniProt P60953)
[2] = molecular target: GST-Rac1 (UniProt P63000)
[3] = molecular target: GST-RhoA (wild type) (UniProt P61586)
GST-RhoA (wild type), sequence (P61586 whole entry): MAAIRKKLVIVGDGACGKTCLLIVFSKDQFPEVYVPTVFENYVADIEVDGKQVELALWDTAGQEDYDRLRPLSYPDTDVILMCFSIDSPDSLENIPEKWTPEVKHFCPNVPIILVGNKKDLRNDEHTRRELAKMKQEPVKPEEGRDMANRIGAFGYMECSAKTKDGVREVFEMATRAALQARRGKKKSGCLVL

GST-Cdc42, sequence (P60953 whole entry): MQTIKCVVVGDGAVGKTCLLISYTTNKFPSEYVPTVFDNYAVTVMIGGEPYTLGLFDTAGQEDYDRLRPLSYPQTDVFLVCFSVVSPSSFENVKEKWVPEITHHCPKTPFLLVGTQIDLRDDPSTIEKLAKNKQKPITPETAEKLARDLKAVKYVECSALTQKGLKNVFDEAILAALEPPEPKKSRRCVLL

pKd [1]: < 4.30 | pKd [2]: < 4.30 | pKd [3]: < 4.30
Substance: GST-RBD (Rho binding domain of Rhotekin fused to GST) (domain or fragment)
